Where two headings read alike, the source gives them in different places.
Columns and labels:
[1] = target: Rep68ΔN214 (adeno-associated virus 2 (AAV-2)) (UniProt P03132); test: AUC
[2] = target: Rep68ΔN209 (adeno-associated virus 2 (AAV-2)) (UniProt P03132); test: AUC
[3] = target: Rep68Y224A (adeno-associated virus 2 (AAV-2)) (UniProt P03132); test: AUC
[4] = target: T1, Rep68ΔN200 (Adeno-associated virus 2 Srivastava/1982, UniProt P03132); format: binding; settings: 36 µM protein, 200 mM NaCl, pH 8.0, 20 °C
T1 construct: gene Rep68; Rep68 without the OBD: full interdomain linker plus helicase domain, to residue 536; start 201 read from the name; pET-15b, E. coli BL21(DE3); also printed Rep68Δ200, RepΔN200

[5] = target: T2, Rep68ΔN209 (Adeno-associated virus 2 Srivastava/1982, UniProt P03132); format: binding; settings: 36 µM protein, 200 mM NaCl, pH 8.0, 20 °C
T2 construct: gene Rep68; residues 210-536, part of linker plus helicase domain; pET-15b, E. coli BL21(DE3)

[6] = target: Rep68ΔN200 (adeno-associated virus 2 (AAV-2)) (UniProt P03132); test: AUC
[7] = target: Rep68ΔN200 (adeno-associated virus 2 (AAV-2)) (UniProt P03132); test: AUC; sedimentation velocity without nucleotide, 40,000 rpm, 20°C, 25 mM Tris-HCl pH 8.0, 200 mM NaCl, 2 mM TCEP; c(s) by sedfit; constants from a global fit (sedphat) to a monomer-dimer model: dimer to monomers
[8] = target: Rep68ΔN200 (adeno-associated virus 2 (AAV-2)) (UniProt P03132); test: cross-linking; DMP (dimethyl pimelimidate), 30 fold molar excess, 60 min at room temperature, protein 2 mg/ml, 25 mM HEPES, 200 mM NaCl, pH 8.0; 8% SDS-PAGE
[9] = target: OBD-linker (residues 1-224) of AAV-2 Rep68 (adeno-associated virus 2 (AAV-2)) (UniProt P03132); test: AUC; sedimentation velocity without nucleotide, 40,000 rpm, 20°C, 25 mM Tris-HCl pH 8.0, 200 mM NaCl, 2 mM TCEP; c(s) by sedfit; constants from a global fit (sedphat) to a monomer-dimer model: dimer to monomers
[10] = target: T3, AAV-2 Rep40 (adeno-associated virus 2 (AAV-2), UniProt P03132 225-536); test: as above; settings: both partners purified
[11] = target: T3, AAV-2 Rep40; test: as above; settings: both partners purified; remark: listed apart in the source

How did the stoichiometry N [1] turn out when “Rep68ΔN214 (from UniProt P03132 215-536) (domain or fragment)” was run?
The stoichiometry N was 2.

For “Rep68ΔN209 (from UniProt P03132 210-536) (domain or fragment)”, which stoichiometry N [2] is on record?
The stoichiometry N was 2.

For “Rep68Y224A (from UniProt P03132 1-536) (natural protein)”, which stoichiometry N [3] is on record?
The stoichiometry N was 2.

Which results are given for `Nc1ncnc2c1ncn2[C@@H]1O[C@H](COP(=O)(O)OP(=O)(O)OP(=O)(O)O)[C@@H](O)[C@H]1O` [ATP]?
sedimentation velocity ultracentrifugation, nucleotide-induced oligomerization ([4]; 5 mM ATP): ATP on the other hand, seems to generate more stable species at ∼7S; sedimentation velocity ultracentrifugation, nucleotide-induced oligomerization ([5]; 5 mM ATP): ATP on the other hand, seems to generate more stable species at ∼7S

“Rep68ΔN200 (from UniProt P03132 201-536) (domain or fragment)” was tested. Which stoichiometry N [6] did it give?
Its stoichiometry N is 2.

And the Kd [7]?
Its Kd is 79 µM.

What about the logKa [7] of the same molecule?
Its logKa is 4.1.

What about the stoichiometry N [7] of the same molecule?
Its stoichiometry N is 2.

And the stoichiometry N [8]?
The stoichiometry N was 2.

For `Nc1ncnc2c1ncn2[C@@H]1O[C@H](COP(=O)(O)OP(=O)(O)O)[C@@H](O)[C@H]1O` [ADP], which “sedimentation velocity ultracentrifugation, nucleotide-induced oligomerization” value ([4]; 5 mM ADP) is on record?
The value was “ADP produces two main populations sedimenting at ∼3S and ∼7S”.

And the “sedimentation velocity ultracentrifugation, nucleotide-induced oligomerization” value ([5]; 5 mM ADP)?
The value was “ADP produces two main populations sedimenting at ∼3S and ∼7S”.

“OBD-linker (residues 1-224) of AAV-2 Rep68 (from UniProt P03132 1-224) (domain or fragment)” was tested. Which stoichiometry N [9] did it give?
The stoichiometry N was 2.

B1: AAV-2 Rep40 (natural protein)
chain: MELVGWLVDKGITSEKQWIQEDQASYISFNAASNSRSQIKAALDNAGKIMSLTKTAPDYLVGQQPVEDISSNRIYKILELNGYDPQYAASVFLGWATKKFGKRNTIWLFGPATTGKTNIAEAIAHTVPFYGCVNWTNENFPFNDCVDKMVIWWEEGKMTAKVVESAKAILGGSKVRVDQKCKSSAQIDPTPVIVTSNTNMCAVIDGNSTTFEHQQPLQDRMFKFELTRRLDHDFGKVTKQEVKDFFRWAKDHVVEVEHEFYVKKGGAKKRPAPSDADISEPKRVRESVAQPSTSDAEASINYADRLARGHSL
modifications: Start at 225 follows from the text; the C-terminus of the assayed Rep40 is not given, so full-length Rep40 (to 536) is taken; 225-490 is given only for the crystal structure 1S9H. ATP or ADP added …
For B1, which “stoichiometry N” value [10] is on record?
Its value is 2.

And the Kd [11]?
Its Kd is 730 µM.
